Test results published in US20190352644A1, “INHIBITION OF MITOCHONDRIAL HYPOXIC STRESS INDUCED RNA EDITING BY APOBEC3G CYTIDINE DEAMINASE” (Health Research, Inc., priority 2015, published 2019).

What was measured:
[1] = tested on: monocyte enriched peripheral blood mononuclear cells (MEPs); experiment: SDHB c.136C>U RNA editing in interferon-treated MEPs (RT-PCR); type: cell-based, human; conditions: normoxic or hypoxic MEPs, 24 hours; IFN1 600 U per ml, IFNγ 200 U per ml; vs untreated
From the text: The TLA-HEK293T™ 293T human embryonic kidney cell-line was obtained from Open Biosystems® (Huntsville, Ala.). Peripheral blood mononuclear cells of anonymous platelet donors were isolated from peripheral blood in Trima Accel™ leukoreduction system chambers (Terumo BCT®, Lakewood, Colo.) after thrombocytapheresis, in accordance with a protocol approved by the institutional review board of Roswell Park Cancer Institute. A density gradient centrifugation method using polysucrose-containing Lymphocyte Separation Medium (Mediatech®, Manassas, Va.) was used for PBMC isolation. […]
For hypoxia, cells were cultured under 1% O2, 5% CO2 and 94% N2 in an Xvivo™ System (Biospherix®, Lacona, N.Y.). […] Differential viability of MEPs after 1-day culture in normoxia versus hypoxia was not observed as evaluated by Trypan blue stain. […]
SDHB gene expression and c.136C>U RNA editing was quantified by RT-PCR. […]

NK cells = experiment: TM7SF3 C>U RNA editing in NK cells; type: cell-based, human; conditions: cellular crowding with hypoxia, IFN-γ 50 ng/ml
Method: The HuT78, JVM3 and NK-92 cell-lines were obtained from ATCC. Hut 78 cells were cultured in IMDM (ATCC) containing 20% Fetal Bovine serum (FBS) (Sigma-Aldrich), JVM3 cells were cultured in RPMI (ATCC) containing 10% FBS and NK-92 cells were cultured in Alpha Minimum Essential medium without ribonucleosides and deoxyribonucleosides (Life Technologies) but with 2 mM L-glutamine and 1.5 g/L sodium bicarbonate as well as 0.2 mM inositol, 0.1 mM 2-mercaptoethanol, 0.02 mM folic acid, 500 U/ml IL-2 (Aldesleukin—a kind gift from Novartis), 12.5% horse serum (ATCC) and 12.5% FBS. […]
Total RNA was isolated and reverse transcribed to generate cDNAs. […] To quantify RNA editing level, the major and minor chromatogram peak heights at putative edited nucleotides were quantified with Sequencher 5.0/5.1 software (Gene Codes, MI). […] For quantitative PCR to assess APOBEC3G and APOBEC3F gene expression, reactions using LightCycler™ 480 Probes Master and SYBR™ Green I dye were performed on a LightCycler™ 480 System (Roche). Quantification cycle (Cq) values were calculated by the instrument software using the maximum second derivative method, and the mean Cq value of duplicate PCR reactions was used for analysis.

B1: IFNγ: Human IFNγ (PBL Assay Science; PeproTech in Example 3) (protein, UniProt P01579 24-161, looked up)
Interferon gamma: QDPYVKEAENLKKYFNAGHSDVADNGTLFLGILKNWKEESDRKIMQSQIVSFYFKLFKNFKDDQSIQKSVETIKEDMNVKFFNSNKKKRDDFEKLTNYSVTDLNVQRKAIHELIQVMAELSPAAKTGKRKRSQMLFRG
- increase of SDHB c.136C>U RNA editing level [1]: ~3 fold
- RNA editing in TM7SF3 (NK cells): did not further increase
